Publication PMC11020753, “Contribution of amino acids in the active site of dipeptidyl peptidase 4 to the catalytic action of the enzyme” (PLOS ONE, 2024)

Substrate: CC(C)C[C@H](NC(=O)[C@@H]1CCCN1C(=O)[C@@H](N)C(C)C)C(=O)O
Assay: purified protein, by the assay type
Conditions: T = 30 °C, 100 mM Tris-HCl, pH 7.6, substrate concentration 25 μM
[1] = other: wild type DP4, cleavage of diprotin B as substrate
[2] = other: R125A, cleavage of diprotin B as substrate

Protein	Km [1]	kcat [1] [s⁻¹]	kcat/Km [1] [M⁻¹ s⁻¹]	Km [2]	kcat [2] [s⁻¹]	kcat/Km [2] [M⁻¹ s⁻¹]
wild type DP4 (Homo sapiens) (protein) ADSRKTYTLTDYLKNTYRLKLYSLRWISDHEYLYKQENNILVFNAEYGNSSVFLENSTFDEFGHSINDYSISPDGQFILLEYNYVKQWRHSYTASYDIYDLNKRQLITEERIPNNTQWVTWSPVGHKLAYVWNNDIYVKIEPNLPSYRITWTGKEDIIYNGITDWVYEEEVFSAYSALWWSPNGTFLAYAQFNDTEVPLIEYSFYSDESLQYPKTVRVPYPKAGAVNPTVKFFVVNTDSLSSVTNATSIQITAPASMLIGDHYLCDVTWATQERISLQWLRRIQNYSVMDICDYDESSGRWNCLVARQHIEMSTTGWVGRFRPSEPHFTLDGNSFYKIISNEEGYRHICYFQIDKKDCTFITKGTWEVIGIEALTSDYLYYISNEYKGMPGGRNLYKIQLSDYTKVTCLSCELNPERCQYYSVSFSKEAKYYQLRCSGPGLPLYTLHSSVNDKGLRVLEDNSALDKMLQNVQMPSKKLDFIILNETKFWYQMILPPHFDKSKKYPLLLDVYAGPCSQKADTVFRLNWATYLASTENIIVASFDGRGSGYQGDKIMHAINRRLGTFEVEDQIEAARQFSKMGFVDNKRIAIWGWSYGGYVTSMVLGSGSGVFKCGIAVAPVSRWEYYDSVYTERYMGLPTPEDNLDHYRNSTVMSRAENFKQVEYLLIHGTADDNVHFQQSAQISKALVDVGVDFQAMWYTDEDHGIASSTAHQHIYTHMSHFIKQCFSLP	(7.2 ± 0.58) · 10^−6 M	7	970000	–	–	–
DP4 variant R125A (Homo sapiens; R125A) (protein) ADSRKTYTLTDYLKNTYRLKLYSLRWISDHEYLYKQENNILVFNAEYGNSSVFLENSTFDEFGHSINDYSISPDGQFILLEYNYVKQWAHSYTASYDIYDLNKRQLITEERIPNNTQWVTWSPVGHKLAYVWNNDIYVKIEPNLPSYRITWTGKEDIIYNGITDWVYEEEVFSAYSALWWSPNGTFLAYAQFNDTEVPLIEYSFYSDESLQYPKTVRVPYPKAGAVNPTVKFFVVNTDSLSSVTNATSIQITAPASMLIGDHYLCDVTWATQERISLQWLRRIQNYSVMDICDYDESSGRWNCLVARQHIEMSTTGWVGRFRPSEPHFTLDGNSFYKIISNEEGYRHICYFQIDKKDCTFITKGTWEVIGIEALTSDYLYYISNEYKGMPGGRNLYKIQLSDYTKVTCLSCELNPERCQYYSVSFSKEAKYYQLRCSGPGLPLYTLHSSVNDKGLRVLEDNSALDKMLQNVQMPSKKLDFIILNETKFWYQMILPPHFDKSKKYPLLLDVYAGPCSQKADTVFRLNWATYLASTENIIVASFDGRGSGYQGDKIMHAINRRLGTFEVEDQIEAARQFSKMGFVDNKRIAIWGWSYGGYVTSMVLGSGSGVFKCGIAVAPVSRWEYYDSVYTERYMGLPTPEDNLDHYRNSTVMSRAENFKQVEYLLIHGTADDNVHFQQSAQISKALVDVGVDFQAMWYTDEDHGIASSTAHQHIYTHMSHFIKQCFSLP	–	–	–	(3.7 ± 0.26) · 10^−4 M	7.7	21000
